This series deals with Neuropeptide Y (NPY) (UniProt P01303 29-64). The experiment in a line: electrochemical aptasensor (SWV, steady state); 1-1000 pg/mL; best NPY response of the three aptamers; aCSF pH 7.4 (composition by citation); SWV -0.4 to 0.0 V, 30 Hz; IPA 500 Hz in flow cell; assay temperature not stated. The note with it: protein: commercial; label: 3' methylene blue; immobilized on Pt via 5' thiol.

B1: Aptamer 4.31 (ssDNA)
DNA: AGCAGCACAGAGGTCAGATGCAAACCACAGCCTGAGTGGTTAGCGTATGTCATTTACGGACCTATGCGTGCTACCGTGAA
modifications: 5' thiol C6 (disulfide reduced), 3' amino linker
For B1, the binding result is listed as “binds”.

For the origin of these results see paper PMC11127761, “Development of a Neuropeptide Y-Sensitive Implantable Microelectrode for Continuous Measurements”.
